Test results: patent publication US20250250361A1, “ANTI-PLA2G10 ANTIBODIES AND METHODS OF USE” (Yale University, priority 2022, published 2025)
Entries after “also recorded” stand apart in the source; their conditions may differ.

Key:
[1] = system: T cell migration inhibited by PLA2G10; assay: high throughput T cell mobility assay (TCMA); type: cell-based; conditions: activated primary human T cells from 3 donors, CXCL11 100 ng/ml
Protocol: A high throughput T cell mobility assay (TCMA) was performed to assess the ability of the antibody clones identified in Example 1 and varespladib (a small molecule PLA2G10 inhibitor) to attenuate the inhibitory effect of PLA2G10 on T cell migration. The TCMA was built by modifying Boyden's two-chamber assay in a 96-well format, in which two chambers were separated by a porous membrane. While activated T cells on the upper chamber are largely held by the membrane, exposure to chemokines allows T cells to transpass the membrane and migrate into the lower chamber. In the assay, HEK293T cells 5×10^4 were seeded in a reservoir plate (the lower chambers) arrayed with human secretory molecule encoding genes and transiently transfected using jetPRIME® transfection reagent (Polyplus transfection) as described previously (Yao et al., (2011) Immunity 34:729-740). After overnight incubation, the culture supernatant was replaced by a fresh migration medium (RPMI-1640 containing 1% fetal calf serum from Atlanta Biologicals) and further cultured for 2-3 days. […] At the end of incubation, the upper chamber was removed, and cells in the lower chambers were collected and stained with AF647-labeled anti-human CD45 mAb (clone 2D1, Biolegend) and numerated by the Mirrorball® plate reader (TPP Labtech). […]

[2] = biological target: T1, recombinant human PLA2G10 protein (Origene) (human, UniProt O15496 43-165, limits assumed); assay: one-way ELISA, plates coated with human PLA2G10 (Origene)
T1 construct: also called rhPLA2G10; hPLA2G10
T1 sequence (looked up): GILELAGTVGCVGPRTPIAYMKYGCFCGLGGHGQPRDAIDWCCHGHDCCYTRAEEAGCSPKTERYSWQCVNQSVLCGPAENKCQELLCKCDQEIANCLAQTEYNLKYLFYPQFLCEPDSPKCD
Protocol: (§1) A one-way ELISA was performed to assess antibody binding to PLA2G10. Plates were coated with either human PLA2G10 (Origene) or mouse PLA2G10 (NP285) at 0.5 mg/ml and tested using a PLA2G10 ELISA kit (Elabscience, China) per the manufacturer's instructions. Testing results were normalized as (Vt−Vm)/Vm, where Vt indicates the value calculated according to the standard curve and Vm indicates the mean value of all samples tested on the same ELISA plate.

human PLA2G10 = biological target: T2, human PLA2G10 (Homo sapiens, UniProt O15496); assay: one-way ELISA, antibody binding to human PLA2G10; conditions: plates coated with human PLA2G10
T2 construct: purchased Origene
T2 sequence (O15496 43-165): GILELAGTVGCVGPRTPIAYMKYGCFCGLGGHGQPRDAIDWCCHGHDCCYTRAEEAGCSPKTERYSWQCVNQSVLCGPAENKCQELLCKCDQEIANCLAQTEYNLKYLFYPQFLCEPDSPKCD
Protocol: as §1

mouse PLA2G10 = biological target: T3, mouse PLA2G10 (Mus musculus, UniProt Q9QXX3); assay: one-way ELISA, antibody binding to mouse PLA2G10; conditions: plates coated with mouse PLA2G10
T3 construct: NP285
T3 sequence (Q9QXX3 29-151): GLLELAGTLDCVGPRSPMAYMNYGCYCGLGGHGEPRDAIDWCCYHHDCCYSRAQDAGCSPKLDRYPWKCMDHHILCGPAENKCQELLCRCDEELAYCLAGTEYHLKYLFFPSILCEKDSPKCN
Protocol: as §1

[3] = biological target: T4, recombinant human PLA2G10 (rhPLA2G10) (Homo sapiens, UniProt O15496); assay: sPLA2 assay kit, phospholipase enzymatic activity of human PLA2G10; type: biochemical; conditions: rhPLA2G10 2.5 μg/ml, antibody 25 μg/ml, RT 30 minutes preincubation
T4 sequence (O15496 43-165): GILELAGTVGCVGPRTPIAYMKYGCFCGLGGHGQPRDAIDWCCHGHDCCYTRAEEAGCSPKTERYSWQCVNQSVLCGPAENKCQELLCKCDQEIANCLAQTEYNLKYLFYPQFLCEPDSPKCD
Protocol: (§2) The PLA2G10 enzymatic activity for hydrolysis of phospholipids was tested using a sPLA2 assay kit (Cayman Chemical, MI) according to manufacturer's instructions. Briefly, the 1,2-dithio analog of diheptanoyl phosphatidylcholine serves as a substrate for sPLA2s. Upon hydrolysis of the thioester bond at the sn-2 position by PLA2G10, free thiols are detected using DTNB (5,5′-dithio-bis-(2-nitrobenzoic acid)). Recombinant human PLA2G10 protein (rhPLA2G10) (0.5 μg, 2.5 μg/ml final concentration) was incubated with 1C11 antibody (5 μg, 25 μg/ml final concentration) at RT for 30 minutes before testing. Mouse PLA2G10 protein (mPLA2G10-IgFc) (0.32 mg/ml) was incubated with 1C11 or 2B12 antibody (1 mg/ml) at 37° C. for 45 minutes before testing.

[4] = system: mouse PLA2G10 (mPLA2G10-IgFc); assay: sPLA2 assay kit, phospholipase enzymatic activity of mouse PLA2G10; type: biochemical; conditions: mPLA2G10-IgFc 0.32 mg/ml, antibody 1 mg/ml, 37° C. 45 minutes preincubation
Protocol: as §2

MC38-2G10 tumors = assay: MC38-2G10 syngeneic tumor model; type: in vivo; conditions: established tumors in mice, antibodies at 6, 11 and 16 days after inoculation
Protocol: FIG. 4 is a graph showing MC38-2G10 tumor growth in mice over time with anti-PLA2G10 antibody 1C11, anti-PD-1 antibody G4, or combined treatment. Mice were treated with antibodies at 6, 11, and 16 days after tumor inoculation. Representative results of two independent experiments are shown as the mean±SEM. Data were analyzed by two-way ANOVA. * p<0.05, ns=not significant.
To investigate the in vivo effects of anti-PLA2G10 antibody 1C11, a tumor cell line, MC38-2G10, was established by lentivirus-mediated gene transduction to stably express murine PLA2G10 homolog.

KPC-2G10 tumors = assay: KPC-2G10 syngeneic tumor model; type: in vivo, mice
Protocol: FIG. 5A is a graph showing KPC-2G10 tumor growth in mice over time with anti-PLA2G10 antibody 1C11, anti-PD-1 antibody G4, or combined treatment. Mice were treated with antibodies at 5, 10, and 15 days (+20-day treatment for 1C11) after tumor inoculation. Representative results of two independent experiments are shown as the mean±SEM. Data were analyzed by one-way ANOVA. FIG. 5B is a graph showing quantification of CD3+T cells by immunohistochemistry staining with an anti-CD3 mAb in the KPC-2G10 tumors with or without 1C11 treatment. Cell numbers of five hpfs were randomly picked in each sample for counting and average cell counts were plotted. Box whisker plots depict the mean, the minimum to the maximum value, and each data point was shown. Data were analyzed by the Mann-Whitney test. * p<0.05.
Similar results were also obtained in another syngeneic mouse model using the KPC pancreatic cancer subline, which has moderate TILs when growing subcutaneously (Sun et al., 2021, Sci Transl Med 4, 127ral37) (FIG. 5A).

HT-29 tumors = assay: HT-29 xenograft tumor model in NSG mice; type: in vivo; conditions: compared to control
Protocol: FIG. 6A is a graph showing HT29 xenograft tumor growth over time with anti-PLA2G10 antibody 1C11 or control treatment. Data were analyzed by one-way ANOVA. * p<0.01. FIG. 6B is a series of pictures showing 1C11 or control antibody treated tumors at day 37. Tumors were surgically removed, formalin-fixed, and sectioned. Tumor tissue sections were studied by immunohistochemistry using an anti-human CD3 mAb. FIG. 6C is a graph showing quantification of CD3+ T cells in control antibody or 1C11 treated tumors (hpf, high power field x400). Cell numbers of ten […] hpfs were randomly picked in each sample for counting and average cell counts were plotted. Box whisker plots depict the mean, the minimum to the maximum value, and each data point was shown. Data were analyzed by the Mann-Whitney test. * p<0.05.
The human colon adenocarcinoma cell line HT-29 secretes PLA2G10 and forms tumors when inoculated in immunodeficient NSG (NOD scid gamma) mice subcutaneously.

[5] = CD3+ T cells by immunohistochemistry

CCc1c(C(=O)C(N)=O)c2c(OCC(=O)O)cccc2n1Cc1ccccc1 [varespladib, reference compound]
reversal of T cell migration inhibited by PLA2G10 [1]: reversed

B1: anti-PLA2G10 antibody 1C11 (mouse IgG2a) (antibody, V domains shown)
VH: QVTLKESGPGILHPSQTLSLTCSFSGFSLNTFGLGVGWVRQPSGKGQEWLAHIWWDDDRYYNPPLKSRLTISKDPSKNQVFLTIPNVNTANTATYYCTQILPHWVAYWGQGTTLTVSS
VL: DIQMNQSPSSLSASLGDTITISCHASQNINVWLSWYQQKPGNIPKLLIYKASNLHTGVPSRFSGSGSGTGFTFTISSLQPEDIATYFCQQGQSYPFTFGGGTKLELK
notes: also called 1C11 antibody; anti-PLA2G10 mAb IC11
binding result [2]: binds

B2: 1C11: anti-PLA2G10 antibody clone, VH SEQ ID NO: 1, VL SEQ ID NO: 2; binds human and mouse PLA2G10 (antibody, V domains shown)
VH: QVTLKESGPGILHPSQTLSLTCSFSGFSLNTFGLGVGWVRQPSGKGQEWLAHIWWDDDRYYNPPLKSRLTISKDPSKNQVFLTIPNVNTANTATYYCTQILPHWVAYWGQGTTLTVSS
VL: DIQMNQSPSSLSASLGDTITISCHASQNINVWLSWYQQKPGNIPKLLIYKASNLHTGVPSRFSGSGSGTGFTFTISSLQPEDIATYFCQQGQSYPFTFGGGTKLELK
binding to human PLA2G10 protein (human PLA2G10): recognized; also recorded: showed binding | binding to mouse PLA2G10 protein (mouse PLA2G10): recognized; also recorded: showed binding | reversal of T cell migration inhibited by PLA2G10 [1]: reversed | inhibition of phospholipase enzymatic activity of human PLA2G10 [3]: inhibited | inhibition of phospholipase enzymatic activity of mouse PLA2G10 [4]: inhibited | MC38-2G10 tumor growth (MC38-2G10 tumors): did not induce the regression | T cell infiltration in KPC-2G10 tumors (KPC-2G10 tumors; [5]): promoted T cell infiltration | KPC-2G10 tumor growth (KPC-2G10 tumors; syngeneic mice, subcutaneous, antibodies at 5, 10, 15 days): responded partially | T cell infiltration in HT-29 tumors (HT-29 tumors; [5]): promoted T cell infiltration | HT-29 xenograft tumor growth (HT-29 tumors; subcutaneous): retarded tumor growth
